Key:
KdpE-E216A = molecular target: T1, KdpE-E216A (Escherichia coli, UniProt P21866 1-225, E216A); assay: fluorescence anisotropy
T1 sequence: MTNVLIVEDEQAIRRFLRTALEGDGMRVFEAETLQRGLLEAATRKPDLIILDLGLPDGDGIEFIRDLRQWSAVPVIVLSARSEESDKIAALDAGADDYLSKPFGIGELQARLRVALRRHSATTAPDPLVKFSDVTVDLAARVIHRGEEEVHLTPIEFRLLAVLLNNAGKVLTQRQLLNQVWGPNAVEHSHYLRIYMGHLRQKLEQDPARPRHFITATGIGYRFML

KdpE = molecular target: T2, KdpE (Escherichia coli, UniProt P21866 1-225); assay: fluorescence anisotropy
T2 sequence: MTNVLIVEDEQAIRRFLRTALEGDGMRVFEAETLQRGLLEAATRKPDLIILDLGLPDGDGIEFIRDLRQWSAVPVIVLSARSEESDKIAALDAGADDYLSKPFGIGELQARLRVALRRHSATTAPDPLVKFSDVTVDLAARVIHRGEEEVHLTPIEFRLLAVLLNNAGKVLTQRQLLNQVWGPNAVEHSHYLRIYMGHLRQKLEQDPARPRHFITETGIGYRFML

B1: 24-bp KdpE site DNA, TAMRA (anisotropy) (dsDNA)
DNA 1: CATTTTTATACTTTTTTTACACCC
DNA 2: GGGTGTAAAAAAAGTATAAAAATG
Kd (KdpE-E216A): 3.5 ± 0.5 nM | Kd (KdpE): 30 ± 4 nM

Source: publication PMC4399498 (Nature communications, 2014)
